Measurements published in patent US20080213836.

Columns and labels:
[1] = test system: T1, Gly-Asp-Asp-Asp-Asp-Lys-β-naphthylamide
T1 sequence: GDDDDK

[2] = test system: recombinant fusion protein of Medaka trypsinogen

Medaka EP-2 serine protease domain
enzyme activity for GD4K-βNA [1]: Both enzymes showed maximal activities for GD4K-βNA at pH 8 | conversion of trypsinogen to active trypsin [2]: The trypsinogen was converted to active trypsin by EP-1 faster than by EP-2
